Reference: article doi:10.1101/2025.09.16.676457 (bioRxiv, 2025)

Biological target: T1, sLgBiT-Lc-GPR25 (without coexpression of TPST1 and TPST2) (Latimeria chalumnae (coelacanth), UniProt H3AQL3 1-365)
T1 sequence (looked up): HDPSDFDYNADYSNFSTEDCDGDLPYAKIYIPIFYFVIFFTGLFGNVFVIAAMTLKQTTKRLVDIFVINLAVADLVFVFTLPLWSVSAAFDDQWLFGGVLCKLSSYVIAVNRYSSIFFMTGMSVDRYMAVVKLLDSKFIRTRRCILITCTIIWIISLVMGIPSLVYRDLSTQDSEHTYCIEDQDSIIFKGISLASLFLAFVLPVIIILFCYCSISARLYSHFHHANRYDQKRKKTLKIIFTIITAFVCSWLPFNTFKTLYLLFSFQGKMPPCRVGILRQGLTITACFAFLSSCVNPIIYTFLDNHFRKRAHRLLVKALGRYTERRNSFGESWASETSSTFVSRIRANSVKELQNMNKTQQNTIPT
Test: split reporter

B1: 6×His-Hs-CXCL17 (ligand, human, UniProt Q6UXB2 22-119, looked up)
chain: SSLNPGVARGHRDRGQASRRWLQEGGQECECKDWFLRAPRRKFMTVSGLPKKQCPCDHFKGNVKKTRHQRHHRKPNKHSRACQQFLKQCQLRSFALPL
  IC50: ~400 nM
